This data set deals with T1, wild type (WT) VirD2 protein, Agrobacterium tumefaciens str. C58 (UniProt P18592).
T1 sequence: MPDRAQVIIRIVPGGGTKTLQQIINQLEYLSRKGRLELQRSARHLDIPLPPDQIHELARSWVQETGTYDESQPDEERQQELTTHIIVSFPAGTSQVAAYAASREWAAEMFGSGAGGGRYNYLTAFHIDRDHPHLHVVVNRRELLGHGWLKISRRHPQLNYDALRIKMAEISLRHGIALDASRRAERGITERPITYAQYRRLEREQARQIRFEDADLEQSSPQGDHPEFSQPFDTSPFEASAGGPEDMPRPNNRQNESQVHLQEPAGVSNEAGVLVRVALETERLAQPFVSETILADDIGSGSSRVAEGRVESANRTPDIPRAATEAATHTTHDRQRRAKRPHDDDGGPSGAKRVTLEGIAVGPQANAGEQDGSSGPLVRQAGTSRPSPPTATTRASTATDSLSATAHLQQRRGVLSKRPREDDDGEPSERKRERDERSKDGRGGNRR

For “plant caspase (putative subtilisin-like (serine) protease, PSLP) from tobacco”, the “Western (immunoblotting) analysis of degradation by plant caspase” value is “degradation of wild type (WT) VirD2 protein by plant caspase (lane 2)”.

Values taken from patent US20100323397.
